Assay results from publication PMC4232046, “The Janus transcription factor HapX controls fungal adaptation to both iron starvation and iron excess”.

Target: HapX(24-158) (Aspergillus fumigatus, UniProt Q4WER3 24-158)
Experiment: SPR; HapX alone, no CBC; SPR Biacore T200, 25 C; 10 mM phosphate pH 7.4, 2.7 mM KCl, 137 mM NaCl, 1 mM DTT, 0.005% surfactant P20, 10 ug/ml poly(dI-dC); biotin-DNA on streptavidin CM3 chip
Conditions: protein: recombinant; tags: MBP fusion cleaved with TEV; extended N-terminus with TEV site; chain copies: 2; label: 5' biotin on strand 1; blunt

Sequence of HapX(24-158) (Q4WER3 24-158): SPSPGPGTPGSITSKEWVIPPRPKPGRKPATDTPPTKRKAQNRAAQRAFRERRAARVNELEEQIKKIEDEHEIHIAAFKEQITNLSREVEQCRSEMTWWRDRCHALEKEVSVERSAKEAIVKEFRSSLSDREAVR

B1: cccAp-369-37 (dsDNA)
DNA 1: AAATCCACCAATCAACGCCTCCGTGATTGTCAGCAAT
DNA 2: ATTGCTGACAATCACGGAGGCGTTGATTGGTGGATTT
Work on B1 yielded a Kd of 171 nM.
